Reference: US20160264649A1

Assays:
Experiment in all cases: cell-based or functional assay
[1] = target: HIV-1 92RW020 Env (HIV-1)
[2] = target: HIV-1 92UG001 Env (HIV-1)
[3] = target: HIV-1 92UG005 Env (HIV-1)
[4] = target: HIV-1 92UG024 Env (HIV-1)
[5] = target: HIV-1 93IN905 Env (HIV-1)
[6] = target: HIV-1 93IN905 Env on pseudovirus (HIV-1)
[7] = target: HIV-1 93MW959 Env on pseudovirus (HIV-1)
[8] = target: HIV-1 93TH305 Env on pseudovirus (HIV-1)
[9] = target: HIV-1 93UG077 Env (HIV-1)
[10] = target: HIV-1 98CN009 Env on pseudovirus (HIV-1)
[11] = target: HIV-1 APV_6 Env on pseudovirus (HIV-1)
HIV-1 CMU02 Env (HIV-1) = target: HIV-1 CMU02 Env (HIV-1)
[12] = target: HIV-1 IAVI-C18 Env (HIV-1)
[13] = target: HIV-1 IAVI-C22 Env (HIV-1)
[14] = target: HIV-1 JRCSF Env on pseudovirus (HIV-1) (UniProt P20871)
[15] = target: HIV-1 JRFL Env on pseudovirus (HIV-1)
[16] = target: HIV-1 MGRM-AE-001 Env (HIV-1)
[17] = target: HIV-1 MGRM-AG-006 Env (HIV-1)
[18] = target: HIV-1 MGRM-AG-009 Env (HIV-1)
[19] = target: HIV-1 MGRM-AG-012 Env (HIV-1)
[20] = target: HIV-1 MGRM-C-004 Env on pseudovirus (HIV-1)
[21] = target: HIV-1 MGRM-C-005 Env on pseudovirus (HIV-1)
[22] = target: HIV-1 MGRM-C-013 Env on pseudovirus (HIV-1)
[23] = target: HIV-1 MGRM-C-014 Env on pseudovirus (HIV-1)
[24] = target: HIV-1 MGRM-C-023 Env on pseudovirus (HIV-1)
[25] = target: HIV-1 MGRM-Chronic-B-003 Env on pseudovirus (HIV-1)
[26] = target: HIV-1 MGRM-Chronic-B-011 Env on pseudovirus (HIV-1)
[27] = target: HIV-1 MGRM-Chronic-B-012 Env on pseudovirus (HIV-1)
[28] = target: HIV-1 MGRM-Chronic-B-024 Env on pseudovirus (HIV-1)
[29] = target: HIV-1 MGRM-D-011 Env (HIV-1)
[30] = target: HIV-1 MGRM-D-012 Env (HIV-1)
[31] = target: HIV-1 MGRM-D-024 Env (HIV-1)
[32] = target: HIV-1 MGRM-F1-006 Env (HIV-1)
[33] = target: HIV-1 MGRM-F1-008 Env (HIV-1)
[34] = target: HIV-1 MGRM-F1-010 Env (HIV-1)
[35] = target: HIV-1 MGRM-F1-016 Env (HIV-1)
[36] = target: HIV-1 MGRM-F1-020 Env (HIV-1)
[37] = target: HIV-1 MGRM-F1-021 Env (HIV-1)
[38] = target: HIV-1 MGRM-F1-022 Env (HIV-1)
[39] = target: HIV-1 MGRM-G-004 Env (HIV-1)
[40] = target: HIV-1 MGRM-G-006 Env (HIV-1)
[41] = target: HIV-1 MGRM-G-014 Env (HIV-1)
[42] = target: HIV-1 MGRM-G-017 Env (HIV-1)
[43] = target: HIV-1 MGRM-G-019 Env (HIV-1)
[44] = target: HIV-1 MGRM-G-024 Env (HIV-1)
[45] = target: HIV-1 MGRM-G-027 Env (HIV-1)
[46] = target: HIV-1 MGRM-G-028 Env (HIV-1)
HIV-1 NL43 Env (HIV-1) = target: HIV-1 NL43 Env (HIV-1)
[47] = target: HIV-1 SF162 Env on pseudovirus (HIV-1) (UniProt P19550)
[48] = target: HIV-1 THR0.18 (Acute) Env on pseudovirus (HIV-1)

2F5 (antibody)
neutralization IC50 [1]: 3.37 µg/mL | neutralization IC90 [1]: 27.7 µg/mL | IC50 (µg/ml), pseudovirus neutralization [2]: 13 µg/mL | IC50 (µg/ml), pseudovirus neutralization [3]: 8.61 µg/mL | neutralization IC50 [3]: 11.8 µg/mL | neutralization IC90 [3]: > 50 µg/mL | IC50 (µg/ml), pseudovirus neutralization [4]: 0.95 µg/mL | neutralization IC50 [4]: 1.27 µg/mL | neutralization IC90 [4]: 34.4 µg/mL | neutralization IC50 [5]: > 50 µg/mL | neutralization IC90 [5]: > 50 µg/mL | IC50 [6]: > 50 µg/mL | IC50 [7]: > 50 µg/mL | IC50 [8]: 7.61 µg/mL | neutralization IC50 [9]: 4.45 µg/mL | neutralization IC90 [9]: 33.4 µg/mL | IC50 [10]: > 50 µg/mL | IC50 [11]: 0.25 µg/mL | IC50 (µg/ml), pseudovirus neutralization (HIV-1 CMU02 Env (HIV-1)): 0.6 µg/mL | neutralization IC50 (HIV-1 CMU02 Env (HIV-1)): 0.38 µg/mL | neutralization IC90 (HIV-1 CMU02 Env (HIV-1)): 12.2 µg/mL | neutralization IC50 [12]: > 50 µg/mL | neutralization IC50 [13]: > 50 µg/mL | neutralization IC90 [13]: > 50 µg/mL | IC50 [14]: 1.85 µg/mL | IC50 [15]: 3.54 µg/mL | IC50 (µg/ml), pseudovirus neutralization [16]: 0.29 µg/mL | IC50 (µg/ml), pseudovirus neutralization [17]: 0.85 µg/mL | IC50 (µg/ml), pseudovirus neutralization [18]: 24.8 µg/mL | IC50 (µg/ml), pseudovirus neutralization [19]: 0.33 µg/mL | IC50 [20]: > 50 µg/mL | IC50 [21]: > 50 µg/mL | IC50 [22]: 18.4 µg/mL | IC50 [23]: > 50 µg/mL | IC50 [24]: > 50 µg/mL | IC50 [25]: 1 µg/mL | IC50 [26]: 0.81 µg/mL | IC50 [27]: 17.6 µg/mL | IC50 [28]: > 50 µg/mL | IC50 (µg/ml), pseudovirus neutralization [29]: > 50 µg/mL | IC50 (µg/ml), pseudovirus neutralization [30]: 1.7 µg/mL | IC50 (µg/ml), pseudovirus neutralization [31]: > 50 µg/mL | IC50 (pseudovirus neutralization) [32]: 1.1 µg/mL | IC50 (pseudovirus neutralization) [33]: 1.61 µg/mL | IC50 (pseudovirus neutralization) [34]: 14.6 µg/mL | IC50 (pseudovirus neutralization) [35]: 21.5 µg/mL | IC50 (pseudovirus neutralization) [36]: 0.59 µg/mL | IC50 (pseudovirus neutralization) [37]: 1.37 µg/mL | IC50 (pseudovirus neutralization) [38]: 1.26 µg/mL | IC50 (µg/ml), pseudovirus neutralization [39]: > 50 µg/mL | IC50 (µg/ml), pseudovirus neutralization [40]: 1.33 µg/mL | IC50 (µg/ml), pseudovirus neutralization [41]: 9.65 µg/mL | IC50 (µg/ml), pseudovirus neutralization [42]: 0.6 µg/mL | IC50 (µg/ml), pseudovirus neutralization [43]: > 50 µg/mL | IC50 (µg/ml), pseudovirus neutralization [44]: 1.07 µg/mL | IC50 (µg/ml), pseudovirus neutralization [45]: 0.28 µg/mL | IC50 (µg/ml), pseudovirus neutralization [46]: 2.24 µg/mL | neutralization IC50 (HIV-1 NL43 Env (HIV-1)): 2.41 µg/mL | neutralization IC90 (HIV-1 NL43 Env (HIV-1)): 19.3 µg/mL | IC50 [47]: 2.52 µg/mL | IC50 [48]: > 50 µg/mL
